Earlier results in patent US5744316A, “Isolated, tyrosinase derived peptides and uses thereof” (Ludwig Institute for Cancer Research, priority 1996, dated 1998).
Where no end group is shown, it is not given here.

Tests used:
HLA-B*4402 molecules = HLA-B*4402 molecules (Homo sapiens, UniProt P01889, A223V/A65T/A93T/A95T/D201E/D98Y/E176V/E187L/E204Q/E69K/G107R/H137Y/K202T/L105A/L119I/N104T/N87E/Q56L/Q94N/R106L/R155S/R180D/S101N/S121R/S35A/S48T/T118I/V36M/W191S/Y140D/Y91S); settings: Coulie et al. 1995
HLA-B44 = settings: Burrows et al. 1990

Row | binding to HLA-B*4402 molecules (HLA-B*4402 molecules) | Sequence | binding by HLA-B44 (HLA-B44)
1 | binds | EEKLIVVLF [SEQ ID NO: 11] | 
2 |  | EENLLDFVRF [SEQ ID NO: 9] | bound
